Values of other authors, collected in publication PMC10303925.

Tests used:
SLP2-A (Homo sapiens) = SLP2-A (Homo sapiens) (UniProt Q9HCH5)
MLPH (Homo sapiens) = MLPH (Homo sapiens) (UniProt Q9BV36)
UniProt Q9BV36, sequence (Q9BV36 whole entry): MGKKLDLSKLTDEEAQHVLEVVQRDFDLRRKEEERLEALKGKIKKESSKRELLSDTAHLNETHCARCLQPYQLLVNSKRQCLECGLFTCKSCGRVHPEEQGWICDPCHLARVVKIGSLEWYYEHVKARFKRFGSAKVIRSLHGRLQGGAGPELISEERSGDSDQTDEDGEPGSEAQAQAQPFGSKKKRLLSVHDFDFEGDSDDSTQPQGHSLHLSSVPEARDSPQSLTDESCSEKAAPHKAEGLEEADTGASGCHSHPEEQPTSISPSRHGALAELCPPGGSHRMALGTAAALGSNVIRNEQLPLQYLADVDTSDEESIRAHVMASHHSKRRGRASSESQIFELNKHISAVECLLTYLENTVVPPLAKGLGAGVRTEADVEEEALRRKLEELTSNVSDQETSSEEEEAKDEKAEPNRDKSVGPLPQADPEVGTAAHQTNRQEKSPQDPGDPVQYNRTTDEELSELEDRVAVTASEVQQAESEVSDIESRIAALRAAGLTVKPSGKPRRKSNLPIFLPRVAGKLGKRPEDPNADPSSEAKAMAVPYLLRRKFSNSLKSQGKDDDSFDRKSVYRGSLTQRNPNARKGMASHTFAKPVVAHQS

UniProt Q9HCH5, sequence (Q9HCH5 whole entry): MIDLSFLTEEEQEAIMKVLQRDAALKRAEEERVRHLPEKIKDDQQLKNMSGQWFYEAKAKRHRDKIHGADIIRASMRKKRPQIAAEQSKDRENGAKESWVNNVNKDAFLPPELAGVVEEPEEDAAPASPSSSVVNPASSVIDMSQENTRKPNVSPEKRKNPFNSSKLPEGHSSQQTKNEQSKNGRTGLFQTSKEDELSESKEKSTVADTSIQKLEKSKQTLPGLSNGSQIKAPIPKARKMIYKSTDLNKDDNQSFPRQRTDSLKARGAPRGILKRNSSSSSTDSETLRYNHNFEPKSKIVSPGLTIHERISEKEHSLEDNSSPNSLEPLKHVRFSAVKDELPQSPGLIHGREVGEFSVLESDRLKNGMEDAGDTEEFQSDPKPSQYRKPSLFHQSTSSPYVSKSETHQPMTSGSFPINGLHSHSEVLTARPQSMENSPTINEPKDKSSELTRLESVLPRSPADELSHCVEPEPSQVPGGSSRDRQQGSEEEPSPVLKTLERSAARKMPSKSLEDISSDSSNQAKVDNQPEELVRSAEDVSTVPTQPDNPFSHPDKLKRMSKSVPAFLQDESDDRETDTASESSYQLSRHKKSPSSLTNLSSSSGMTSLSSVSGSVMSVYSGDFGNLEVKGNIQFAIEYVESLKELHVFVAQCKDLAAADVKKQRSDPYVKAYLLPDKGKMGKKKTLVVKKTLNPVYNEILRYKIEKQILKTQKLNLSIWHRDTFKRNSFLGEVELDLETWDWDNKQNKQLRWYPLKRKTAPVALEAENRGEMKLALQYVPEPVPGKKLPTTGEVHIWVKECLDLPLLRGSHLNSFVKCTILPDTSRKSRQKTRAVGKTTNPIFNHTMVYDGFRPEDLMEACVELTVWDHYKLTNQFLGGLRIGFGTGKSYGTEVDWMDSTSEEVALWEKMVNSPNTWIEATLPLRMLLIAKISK

Kd (SLP2-A (Homo sapiens)): 20 nM
Kd (MLPH (Homo sapiens)): 200 nM
Substance: RAB27A (from UniProt P51159)
